In the assay the target is T1, G9a and GLP (Homo sapiens, UniProt Q96KQ7+Q9H9B1).
T1 sequence (Q96KQ7 2-1210 limits assumed): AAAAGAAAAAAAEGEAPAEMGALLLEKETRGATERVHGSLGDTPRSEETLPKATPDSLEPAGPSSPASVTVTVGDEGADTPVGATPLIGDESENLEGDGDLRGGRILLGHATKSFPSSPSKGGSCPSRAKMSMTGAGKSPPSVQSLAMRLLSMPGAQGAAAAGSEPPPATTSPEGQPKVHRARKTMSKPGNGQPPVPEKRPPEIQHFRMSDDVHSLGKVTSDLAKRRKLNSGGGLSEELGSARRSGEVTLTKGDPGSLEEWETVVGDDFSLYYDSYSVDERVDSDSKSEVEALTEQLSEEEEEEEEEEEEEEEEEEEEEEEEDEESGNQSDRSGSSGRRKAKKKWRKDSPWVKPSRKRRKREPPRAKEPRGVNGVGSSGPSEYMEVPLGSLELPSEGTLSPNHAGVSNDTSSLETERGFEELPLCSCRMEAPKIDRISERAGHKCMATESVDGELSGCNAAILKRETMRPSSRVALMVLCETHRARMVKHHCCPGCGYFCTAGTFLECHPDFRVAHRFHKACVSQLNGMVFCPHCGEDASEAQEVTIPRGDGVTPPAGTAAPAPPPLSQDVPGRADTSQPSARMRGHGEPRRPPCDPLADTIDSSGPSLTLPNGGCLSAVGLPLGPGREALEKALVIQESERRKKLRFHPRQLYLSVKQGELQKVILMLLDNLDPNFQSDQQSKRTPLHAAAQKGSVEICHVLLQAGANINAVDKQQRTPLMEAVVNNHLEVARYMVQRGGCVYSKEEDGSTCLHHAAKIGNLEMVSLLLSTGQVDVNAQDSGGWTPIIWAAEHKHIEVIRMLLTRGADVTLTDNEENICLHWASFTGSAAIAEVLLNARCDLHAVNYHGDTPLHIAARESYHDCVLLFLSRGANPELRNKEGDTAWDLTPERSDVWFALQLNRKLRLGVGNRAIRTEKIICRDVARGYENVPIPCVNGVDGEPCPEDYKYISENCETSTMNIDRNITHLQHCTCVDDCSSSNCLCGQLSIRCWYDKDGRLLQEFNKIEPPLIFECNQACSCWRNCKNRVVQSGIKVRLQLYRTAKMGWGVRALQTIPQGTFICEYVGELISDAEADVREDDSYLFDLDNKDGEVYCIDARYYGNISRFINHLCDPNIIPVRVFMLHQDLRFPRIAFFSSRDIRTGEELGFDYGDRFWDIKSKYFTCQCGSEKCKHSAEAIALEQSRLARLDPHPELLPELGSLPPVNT
T1 sequence (Q9H9B1 2-1298 limits assumed): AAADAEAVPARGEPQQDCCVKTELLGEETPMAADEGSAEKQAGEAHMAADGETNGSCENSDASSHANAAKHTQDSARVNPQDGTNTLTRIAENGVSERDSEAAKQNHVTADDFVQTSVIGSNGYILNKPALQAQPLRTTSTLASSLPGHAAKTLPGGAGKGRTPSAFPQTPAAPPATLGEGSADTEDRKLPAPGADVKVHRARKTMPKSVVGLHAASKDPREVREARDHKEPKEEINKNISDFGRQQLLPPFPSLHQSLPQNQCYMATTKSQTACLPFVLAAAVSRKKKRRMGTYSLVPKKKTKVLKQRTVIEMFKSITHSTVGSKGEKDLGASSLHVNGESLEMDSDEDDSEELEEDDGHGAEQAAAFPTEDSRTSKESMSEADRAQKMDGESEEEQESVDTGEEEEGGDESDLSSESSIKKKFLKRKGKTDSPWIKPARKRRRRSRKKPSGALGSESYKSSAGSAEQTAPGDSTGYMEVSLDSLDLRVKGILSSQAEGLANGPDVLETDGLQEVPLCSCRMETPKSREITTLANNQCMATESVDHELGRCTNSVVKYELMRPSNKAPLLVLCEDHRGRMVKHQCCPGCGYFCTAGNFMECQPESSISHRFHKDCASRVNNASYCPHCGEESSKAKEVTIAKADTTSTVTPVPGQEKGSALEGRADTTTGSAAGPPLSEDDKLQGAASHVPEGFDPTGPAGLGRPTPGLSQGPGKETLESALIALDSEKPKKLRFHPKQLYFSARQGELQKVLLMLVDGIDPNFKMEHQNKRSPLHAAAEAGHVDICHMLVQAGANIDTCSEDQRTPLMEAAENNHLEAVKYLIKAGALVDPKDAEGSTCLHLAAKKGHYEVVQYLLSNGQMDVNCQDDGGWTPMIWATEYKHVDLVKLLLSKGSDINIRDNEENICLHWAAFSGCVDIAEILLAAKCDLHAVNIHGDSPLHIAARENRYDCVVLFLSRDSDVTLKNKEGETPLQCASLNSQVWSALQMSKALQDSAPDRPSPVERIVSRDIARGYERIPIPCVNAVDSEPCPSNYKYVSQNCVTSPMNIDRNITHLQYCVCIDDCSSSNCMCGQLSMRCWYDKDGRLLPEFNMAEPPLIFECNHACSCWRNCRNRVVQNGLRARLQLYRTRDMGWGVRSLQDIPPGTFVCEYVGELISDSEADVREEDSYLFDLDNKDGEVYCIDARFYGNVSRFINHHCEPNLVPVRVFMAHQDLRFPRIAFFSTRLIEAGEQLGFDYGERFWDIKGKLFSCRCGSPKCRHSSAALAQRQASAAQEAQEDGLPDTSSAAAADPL
As to the kind of experiment: Triple SILAC pull-down after UNC0638 treatment of 293T cells, DMSO/UNC0638 ratio of protein captured by 3×MBT.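 On all read-outs here: mass spectrometry (Q-Exactive) SILAC quantitation, DMSO/UNC0638 ratio computed after subtracting 3×MBTD355N mutant pull-down background, only proteins with at least twofold 3×MBT over mutant signal considered.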 In kind it is cell-based. On the set-up: cells were treated for 24 hours with UNC0638 at 2.5 μM or DMSO vehicle control; endogenous in cells; host or cells: HEK 293T. Particulars: for Relative to UNC0638 UNC Heavy: UNC0638 in heavy SILAC media; for Relative to UNC0638 UNC Light: UNC0638 in light SILAC media; for Relative to UNC0638 Average: average of UNC Light and UNC Heavy experiments.

Where [1] appears, read: SILAC ratio DMSO/UNC0638 of protein pulled down with 3xMBT.
Setting [2] is: SILAC ratio DMSO relative to UNC0638, pull-down with 3xMBT, all values in log base 2.

B1: NHP2L1: protein with methylated lysine identified in 3xMBT pull-down (protein, UniProt P55769 1-128, looked up)
NHP2-like protein 1: MTEADVNPKAYPLADAHLTKKLLDLVQQSCNYKQLRKGANEATKTLNRGISEFIVMAADAEPLEIILHLPLLCEDKNVPYVFVRSKQALGRACGVSRPVIACSVTIKEGSQLKQQIQSIQQSIERLLV
As for B1, the “Relative to UNC0638 Average” value was determined as 0.24 log base 2. Under setting [1], the “Relative to UNC0638 UNC Heavy” value is −0.86 log base 2 and the “Relative to UNC0638 UNC Light” value is on record as 1.33 log base 2.

B2: SCML2: protein with methylated lysine identified in 3xMBT pull-down (protein, UniProt Q9UQR0 1-700, looked up)
Sex comb on midleg-like …: MGQTVNEDSMDVKKENQEKTPQSSTSSVQRDDFHWEEYLKETGSISAPSECFRQSQIPPVNDFKVGMKLEARDPRNATSVCIATVIGITGARLRLRLDGSDNRNDFWRLVDSPDIQPVGTCEKEGDLLQPPLGYQMNTSSWPMFLLKTLNGSEMASATLFKKEPPKPPLNNFKVGMKLEAIDKKNPYLICPATIGDVKGDEVHITFDGWSGAFDYWCKYDSRDIFPAGWCRLTGDVLQPPGTSVPIVKNIAKTESSPSEASQHSMQSPQKTTLILPTQQVRRSSRIKPPGPTAVPKRSSSVKNITPRKKGPNSGKKEKPLPVICSTSAASLKSLTRDRGMLYKDVASGPCKIVMSTVCVYVNKHGNFGPHLDPKRIQQLPDHFGPGPVNVVLRRIVQACVDCALETKTVFGYLKPDNRGGEVITASFDGETHSIQLPPVNSASFALRFLENFCHSLQCDNLLSSQPFSSSRGHTHSSAEHDKNQSAKEDVTERQSTKRSPQQTVPYVVPLSPKLPKTKEYASEGEPLFAGGSAIPKEENLSEDSKSSSLNSGNYLNPACRNPMYIHTSVSQDFSRSVPGTTSSPLVGDISPKSSPHEVKFQMQRKSEAPSYIAVPDPSVLKQGFSKDPSTWSVDEVIQFMKHTDPQISGPLADLFRQHEIDGKALFLLKSDVMMKYMGLKLGPALKLCYYIEKLKEGKYS
With B2, under setting [2], the “Relative to UNC0638 UNC Heavy” value was determined as 0.59 log base 2 and the “Relative to UNC0638 UNC Light” value was −0.85 log base 2. In addition, the “Relative to UNC0638 Average” value (all values in log base 2) is listed as −0.13 log base 2.

B3: MCM4: protein with methylated lysine identified in 3xMBT pull-down (protein, UniProt P33991 2-863, looked up)
DNA replication licensing …: SSPASTPSRRGSRRGRATPAQTPRSEDARSSPSQRRRGEDSTSTGELQPMPTSPGVDLQSPAAQDVLFSSPPQMHSSAIPLDFDVSSPLTYGTPSSRVEGTPRSGVRGTPVRQRPDLGSAQKGLQVDLQSDGAAAEDIVASEQSLGQKLVIWGTDVNVAACKENFQRFLQRFIDPLAKEEENVGIDITEPLYMQRLGEINVIGEPFLNVNCEHIKSFDKNLYRQLISYPQEVIPTFDMAVNEIFFDRYPDSILEHQIQVRPFNALKTKNMRNLNPEDIDQLITISGMVIRTSQLIPEMQEAFFQCQVCAHTTRVEMDRGRIAEPSVCGRCHTTHSMALIHNRSLFSDKQMIKLQESPEDMPAGQTPHTVILFAHNDLVDKVQPGDRVNVTGIYRAVPIRVNPRVSNVKSVYKTHIDVIHYRKTDAKRLHGLDEEAEQKLFSEKRVELLKELSRKPDIYERLASALAPSIYEHEDIKKGILLQLFGGTRKDFSHTGRGKFRAEINILLCGDPGTSKSQLLQYVYNLVPRGQYTSGKGSSAVGLTAYVMKDPETRQLVLQTGALVLSDNGICCIDEFDKMNESTRSVLHEVMEQQTLSIAKAGIICQLNARTSVLAAANPIESQWNPKKTTIENIQLPHTLLSRFDLIFLLLDPQDEAYDRRLAHHLVALYYQSEEQAEEELLDMAVLKDYIAYAHSTIMPRLSEEASQALIEAYVDMRKIGSSRGMVSAYPRQLESLIRLAEAHAKVRLSNKVEAIDVEEAKRLHREALKQSATDPRTGIVDISILTTGMSATSRKRKEELAEALKKLILSKGKTPALKYQQLFEDIRGQSDIAITKDMFEEALRALADDDFLTVTGKTVRLL
modifications: methylated lysine
notes: protein with methylated lysine identified in 3xMBT pull-down
Consider B3, for which the “Relative to UNC0638 Average” value is recorded as 0.20 log base 2. Under setting [1], the “Relative to UNC0638 UNC Heavy” value was 0.24 log base 2 and the “Relative to UNC0638 UNC Light” value was 0.15 log base 2.

These data come from patent US20140274782A1, “AFFINITY REAGENTS AND METHODS FOR DETECTION, PURIFICATION, AND PROTEOMIC ANALYSIS OF METHYLATED PROTEINS” (The Board of Trustees of the Leland Stanford Junior …, priority 2013, published 2014).
